Here are results for three molecules from article PMC10397247.

One assay deals with T1, 4H570-bN.
T1 chain: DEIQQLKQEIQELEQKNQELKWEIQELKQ
Briefly: two-hybrid library CCNG1.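 Further: natural log of median RNA to DNA barcode read ratio; higher means stronger binding.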

The next assay concerns the target T2, 4H3628-bN.
T2 chain: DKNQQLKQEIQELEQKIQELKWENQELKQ
Briefly: two-hybrid library CCNG1.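 Further: natural log of median RNA to DNA barcode read ratio; higher means stronger binding.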

In the next assay the target is T3, 4H1544-bN.
T3 chain: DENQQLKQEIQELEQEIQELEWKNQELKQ
Put plainly: two-hybrid library CCNG1.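 Further: natural log of median RNA to DNA barcode read ratio; higher means stronger binding.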

The next assay has as its target T4, 4H1710-bN.
T4 chain: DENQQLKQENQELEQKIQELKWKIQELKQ
Put plainly: two-hybrid library CCNG1.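 Further: natural log of median RNA to DNA barcode read ratio; higher means stronger binding.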

The target of another assay is T5, 4H3414-bN.
T5 chain: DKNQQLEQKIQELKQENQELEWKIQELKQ
Put plainly: two-hybrid library CCNG1.

Another assay concerns the target T6, 4H1629-bN.
T6 chain: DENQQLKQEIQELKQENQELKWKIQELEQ
Briefly: two-hybrid library CCNG1.

The next assay has as its target T7, 4H3129-bN.
T7 chain: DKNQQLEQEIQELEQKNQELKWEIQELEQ
Put plainly: two-hybrid library CCNG1.

A further assay deals with T8, 4H3631-bN.
T8 chain: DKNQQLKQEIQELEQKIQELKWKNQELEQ
Briefly: two-hybrid library CCNG1.

In the next assay the target is T9, 4H1449-bN.
T9 chain: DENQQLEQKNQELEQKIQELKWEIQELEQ
Briefly: two-hybrid library CCNG1.

The target in a further assay is T10, 4H3638-bN.
T10 chain: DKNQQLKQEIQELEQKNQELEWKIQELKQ
Briefly: two-hybrid library CCNG1.

For a further assay, the target named is T11, 4H584-bN.
T11 chain: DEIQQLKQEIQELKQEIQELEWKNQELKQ
Briefly: two-hybrid library CCNG1.

Another assay deals with T12, 4H3817-bN.
T12 chain: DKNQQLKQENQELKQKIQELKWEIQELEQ
Briefly: two-hybrid library CCNG1.

For a further assay, the target named is T13, 4H3172-bN.
T13 chain: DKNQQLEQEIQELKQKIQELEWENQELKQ
Put plainly: two-hybrid library CCNG1.

The next assay deals with T14, 4H3974-bN.
T14 chain: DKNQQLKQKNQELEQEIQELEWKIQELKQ
Briefly: two-hybrid library CCNG1.

A further assay addresses T15, 4H1804-bN.
T15 chain: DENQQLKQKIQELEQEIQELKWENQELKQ
Briefly: two-hybrid library CCNG1.

Another assay deals with T16, 4H1899-bN.
T16 chain: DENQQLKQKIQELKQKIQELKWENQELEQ
Put plainly: two-hybrid library CCNG1.

Another assay concerns the target T17, 4H3613-bN.
T17 chain: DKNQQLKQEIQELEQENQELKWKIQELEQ
Put plainly: two-hybrid library CCNG1.

Another assay has as its target T18, 4H906-bN.
T18 chain: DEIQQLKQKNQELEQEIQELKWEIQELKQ
Put plainly: two-hybrid library CCNG1.

Another assay concerns the target T19, 4H619-bN.
T19 chain: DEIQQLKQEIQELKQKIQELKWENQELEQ
Briefly: two-hybrid library CCNG1.

In a further assay the target is T20, 4H3858-bN.
T20 chain: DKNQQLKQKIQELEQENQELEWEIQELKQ
Briefly: two-hybrid library CCNG1.

The next assay deals with T21, 4H850-bN.
T21 chain: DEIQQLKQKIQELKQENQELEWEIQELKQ
Briefly: two-hybrid library CCNG1.

A further assay addresses T22, 4H1985-bN.
T22 chain: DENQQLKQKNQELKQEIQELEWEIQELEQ
Briefly: two-hybrid library CCNG1.

The target in another assay is T23, 4H4038-bN.
T23 chain: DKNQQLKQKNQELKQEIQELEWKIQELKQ
Briefly: two-hybrid library CCNG1.

The next assay concerns the target T24, 4H3592-bN.
T24 chain: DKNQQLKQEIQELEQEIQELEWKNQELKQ
Briefly: two-hybrid library CCNG1.

The next assay deals with T25, 4H3907-bN.
T25 chain: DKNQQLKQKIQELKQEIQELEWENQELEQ
Put plainly: two-hybrid library CCNG1.

Another assay has as its target T26, 4H3601-bN.
T26 chain: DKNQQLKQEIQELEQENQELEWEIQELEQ
Put plainly: two-hybrid library CCNG1.

The target of a further assay is T27, 4H1449-AA.
T27 chain: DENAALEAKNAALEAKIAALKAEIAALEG
Briefly: two-hybrid library CCmax. Particulars: mean of both orientations.

The target in the next assay is T28, 4H432-AA.
T28 chain: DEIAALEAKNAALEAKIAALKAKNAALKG
Briefly: two-hybrid library CCmax. The settings on record: mean of both orientations.

Another assay deals with T29, 4H3049-AA.
T29 chain: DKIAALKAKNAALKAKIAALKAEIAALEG
Briefly: two-hybrid library CCmax. The settings on record: mean of both orientations.

The next assay addresses T30, 4H341-AA.
T30 chain: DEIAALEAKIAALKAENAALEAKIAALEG
Put plainly: two-hybrid library CCmax. The settings on record: mean of both orientations.

Another assay deals with T31, 4H2604-AA.
T31 chain: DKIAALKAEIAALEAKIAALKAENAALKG
Briefly: two-hybrid library CCmax. The settings on record: mean of both orientations.

Another assay deals with T32, 4H2947-AA.
T32 chain: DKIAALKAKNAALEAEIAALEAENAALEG
Briefly: two-hybrid library CCmax. Particulars: mean of both orientations.

For the next assay, the target named is T33, 4H3094-AA.
T33 chain: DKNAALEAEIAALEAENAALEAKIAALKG
Put plainly: two-hybrid library CCmax. Particulars: mean of both orientations.

The target of the next assay is T34, 4H324-AA.
T34 chain: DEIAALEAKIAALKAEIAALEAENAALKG
Briefly: two-hybrid library CCmax. The settings on record: mean of both orientations.

A further assay addresses T35, 4H63-AA.
T35 chain: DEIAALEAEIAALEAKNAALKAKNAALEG
Put plainly: two-hybrid library CCmax. The settings on record: mean of both orientations.

Another assay concerns the target T36, 4H2774-AA.
T36 chain: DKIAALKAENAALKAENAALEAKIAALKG
Put plainly: two-hybrid library CCmax. Particulars: mean of both orientations.

For the next assay, the target named is T37, 4H3974-AA.
T37 chain: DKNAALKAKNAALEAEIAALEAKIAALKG
Put plainly: two-hybrid library CCmax. The settings on record: mean of both orientations.

The target of the next assay is T38, 4H2961-AA.
T38 chain: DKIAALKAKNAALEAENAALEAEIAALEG
Briefly: two-hybrid library CCmax. Particulars: mean of both orientations.

The next assay concerns the target T39, 4H380-AA.
T39 chain: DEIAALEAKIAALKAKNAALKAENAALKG
Briefly: two-hybrid library CCmax. The settings on record: mean of both orientations.

The next assay concerns the target T40, 4H235-AA.
T40 chain: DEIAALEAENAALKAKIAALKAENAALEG
Put plainly: two-hybrid library CCmax. Particulars: mean of both orientations.

A further assay deals with T41, 4H1878-AA.
T41 chain: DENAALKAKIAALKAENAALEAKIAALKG
Put plainly: two-hybrid library CCmax. The settings on record: mean of both orientations.

The target of the next assay is T42, 4H446-AA.
T42 chain: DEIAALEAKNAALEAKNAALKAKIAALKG
Put plainly: two-hybrid library CCmax. Particulars: mean of both orientations.

The next assay has as its target T43, 4H3449-AA.
T43 chain: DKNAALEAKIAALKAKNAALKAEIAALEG
Put plainly: two-hybrid library CCmax. The settings on record: mean of both orientations.

Another assay addresses T44, 4H2621-AA.
T44 chain: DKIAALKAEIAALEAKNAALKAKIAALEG
Briefly: two-hybrid library CCmax. The settings on record: mean of both orientations.

The next assay addresses T45, 4H1384-AA.
T45 chain: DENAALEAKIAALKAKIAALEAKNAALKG
Briefly: two-hybrid library CCmax.

The target of a further assay is T46, 4H1593-AA.
T46 chain: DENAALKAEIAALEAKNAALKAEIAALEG
Put plainly: two-hybrid library CCmax. The settings on record: mean of both orientations.

The next assay has as its target T47, 4H2903-AA.
T47 chain: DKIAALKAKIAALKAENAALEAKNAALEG
Briefly: two-hybrid library CCmax. The settings on record: mean of both orientations.

The target of a further assay is T48, 4H3619-AA.
T48 chain: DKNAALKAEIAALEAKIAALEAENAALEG
Briefly: two-hybrid library CCmax. The settings on record: mean of both orientations.

In a further assay the target is T49, 4H3915-AA.
T49 chain: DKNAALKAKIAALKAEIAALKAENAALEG
Put plainly: two-hybrid library CCmax. Particulars: mean of both orientations.

In a further assay the target is T50, 4H3629-AA.
T50 chain: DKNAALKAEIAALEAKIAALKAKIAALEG
Put plainly: two-hybrid library CCmax. Particulars: mean of both orientations.

The target in the next assay is T51, 4H2580-AA.
T51 chain: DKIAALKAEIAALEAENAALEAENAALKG
Put plainly: two-hybrid library CCmax. Particulars: mean of both orientations.

Another assay addresses T52, 4H3777-AA.
T52 chain: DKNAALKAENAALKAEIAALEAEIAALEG
Briefly: two-hybrid library CCmax. Particulars: mean of both orientations.

In another assay the target is T53, 4H2760-AA.
T53 chain: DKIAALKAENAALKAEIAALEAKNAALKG
Put plainly: two-hybrid library CCmax. Particulars: mean of both orientations.

Another assay concerns the target T54, 4H249-AA.
T54 chain: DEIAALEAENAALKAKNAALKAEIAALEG
Briefly: two-hybrid library CCmax.

DENQQLEQKNQELEQKIQELKWEIQELEQ [4H1449-bN]: the interaction score with 4H570-bN was -0.581; with 4H3628-bN, -0.461; with 4H1544-bN, -1.72; with 4H1710-bN, -0.246; in the assay with 4H3414-bN, -0.742; in the assay with 4H1629-bN it was -0.745. In addition, the interaction score in the assay with 4H3129-bN was -2.48; in the assay with 4H3631-bN it was -0.391; with 4H1449-bN, -0.847; in the assay with 4H3638-bN, -1.08; with 4H584-bN it was -0.471; with 4H3817-bN, -1.76. The interaction score with 4H3172-bN is -0.588; with 4H3974-bN, 1.15; in the assay with 4H1804-bN, -2.5; in the assay with 4H1899-bN, -0.773; in the assay with 4H3613-bN it was -1.42; with 4H906-bN, -1.69. Further, the interaction score is -0.984 with 4H619-bN, -0.776 in the assay with 4H3858-bN, -1.83 with 4H850-bN and -1.29 with 4H1985-bN.

For DKNQQLKQEIQELEQEIQELEWKNQELKQ [4H3592-bN], the interaction score is -0.372 in the assay with 4H4038-bN, -0.397 in the assay with 4H3592-bN, -1.47 in the assay with 4H3907-bN and -0.0551 in the assay with 4H3601-bN.

As to DENAALEAKIAALKAKIAALEAKNAALKG [4H1384-AA], the interaction score with 4H1449-AA is -1.1; in the assay with 4H432-AA it was -1.33; with 4H3049-AA, -0.361; with 4H341-AA, -0.177; with 4H2604-AA, 1.45; in the assay with 4H2947-AA, -1.05. In addition, the interaction score was -0.731 with 4H3094-AA; 0.82 in the assay with 4H324-AA; -0.475 in the assay with 4H63-AA; -1.81 in the assay with 4H2774-AA; 0.121 with 4H3974-AA; -1.37 in the assay with 4H2961-AA. For the same molecule, the interaction score with 4H380-AA was -1.4; with 4H235-AA, -1.3; in the assay with 4H1878-AA, -1.08; with 4H446-AA, -2.33; with 4H3449-AA, -1.82; in the assay with 4H2621-AA it was -0.862. Besides, the interaction score with 4H1384-AA was 0.25; in the assay with 4H1593-AA, -1.48; with 4H2903-AA it was -0.437; with 4H3619-AA, 2.13; in the assay with 4H3915-AA, -0.264; with 4H3629-AA it was 0.973. For the same molecule, the interaction score in the assay with 4H2580-AA was 0.35; with 4H3777-AA, 0.578; with 4H2760-AA, -1.74; with 4H249-AA, -1.81.
